Results on one substance are retold here after PMC5651844, “YEATS2 links histone acetylation to tumorigenesis of non-small cell lung cancer” (Nature Communications, 2017).

The test addresses YEATS domain of human YEATS2 (aa 201-332), tag removed (human) (UniProt Q9ULM3). The experiment in a line: ITC; YEATS2_(201-332) titrated with histone peptides, 15 C, 20 mM Tris 7.5, 0.5 M sodium citrate, 5% glycerol, 2 mM beta-mercaptoethanol; one set of binding sites model. For orientation: Isothermal titration calorimetry measures the heat released or taken up as one component is titrated into another.

histone H3 P30A mutant peptide (peptide; modification not given), sequence (chain, as listed by the source P30A): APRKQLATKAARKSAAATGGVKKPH
YEATS domain of human YEATS2 (aa 201-332), tag removed (human), sequence (Q9ULM3 201-332): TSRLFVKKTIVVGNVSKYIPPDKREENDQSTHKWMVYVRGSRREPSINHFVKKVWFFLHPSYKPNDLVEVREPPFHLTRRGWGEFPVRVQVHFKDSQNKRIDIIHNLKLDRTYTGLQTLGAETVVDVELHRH

For the substance “histone H3 P30A mutant peptide (peptide; modification not given)”, the fold drop against the wild-type H3K27ac peptide came to 2 fold.
